{"source": "patent US11499162B2", "about": "“Plants having increased tolerance to herbicides” (BASF SE, priority 2016, dated 2022)"}
{"assay_type": "biochemical", "conditions": "pH 7.2", "procedure,_shortened": "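% degradation measured against empty-vector control by UPLC-HR-MS, with product identity confirmed by exact mass and MS-MS. Conditions: 25 mM sodium phosphate pH 7.2, 30 °C, substrates at 1–10 nM. Enzyme source: TriA-expressing E. coli resting cells incubated with azines, melamine or atrazine.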", "units": {"Degradation in % of 6-cyclopentyl-N4-(2,3,4,5,6-pentafluorophenyl)-1,3,5-triazine-2,4-diamine": "%", "Degradation in % of Melamine": "%"}}
{"molecule": "M155L: mutated TriA variant of SEQ ID NO: 2 (protein, Pseudomonas) MQTLSIQHGTLVTMDQYRRVLGDSWVHVQDGRIVALGVHAESVPPPADRVIDARGKVVLPGFINAHTHVNQILLRGGPSHGRQLYDWLFNVLYPGQKAMRPEDVAVAVRLYCAEAVRSGITTINDNADSAIYPGNIEAAMAVYGEVGVRVVYARLFFDRMDGRIQGYVDALKARSPQVELCSIMEETAVAKDRITALSDQYHGTAGGRISVWPAPAITPAVTVEGMRWAQAFARDRAVMWTLHMAESDHDERLHWMSPAEYMECYGLLDERLQVAHCVYFDRKDVRLLHRHNVKVASQVVSNAYLGSGVAPVPEMVERGMAVGIGTDDGNCNDSVNMIGDMKFMAHIHRAVHRDADVLTPEKILEMATIDGARSLGMDHEIGSIETGKRADLILLDLRHPQTTPHHHLAATIVFQAYGNEVDTVLIDGNVVMENRRLSFLPPERELAFLEEAQSRATAILQRANMVANPAWRSL", "Degradation in % of 6-cyclopentyl-N4-(2,3,4,5,6-pentafluorophenyl)-1,3,5-triazine-2,4-diamine": 0, "Degradation in % of Melamine": 4}
{"molecule": "D128V: mutated TriA variant of SEQ ID NO: 2 (protein, Pseudomonas) MQTLSIQHGTLVTMDQYRRVLGDSWVHVQDGRIVALGVHAESVPPPADRVIDARGKVVLPGFINAHTHVNQILLRGGPSHGRQLYDWLFNVLYPGQKAMRPEDVAVAVRLYCAEAVRSGITTINDNAVSAIYPGNIEAAMAVYGEVGVRVVYARMFFDRMDGRIQGYVDALKARSPQVELCSIMEETAVAKDRITALSDQYHGTAGGRISVWPAPAITPAVTVEGMRWAQAFARDRAVMWTLHMAESDHDERLHWMSPAEYMECYGLLDERLQVAHCVYFDRKDVRLLHRHNVKVASQVVSNAYLGSGVAPVPEMVERGMAVGIGTDDGNCNDSVNMIGDMKFMAHIHRAVHRDADVLTPEKILEMATIDGARSLGMDHEIGSIETGKRADLILLDLRHPQTTPHHHLAATIVFQAYGNEVDTVLIDGNVVMENRRLSFLPPERELAFLEEAQSRATAILQRANMVANPAWRSL", "Degradation in % of 6-cyclopentyl-N4-(2,3,4,5,6-pentafluorophenyl)-1,3,5-triazine-2,4-diamine": 2, "Degradation in % of Melamine": 0}
{"molecule": "Y85LL88AF89AL92AY93VQ96TD128GM155VF157L: mutated TriA variant of SEQ ID NO: 2 (protein, Pseudomonas) MQTLSIQHGTLVTMDQYRRVLGDSWVHVQDGRIVALGVHAESVPPPADRVIDARGKVVLPGFINAHTHVNQILLRGGPSHGRQLLDWAANVAVPGTKAMRPEDVAVAVRLYCAEAVRSGITTINDNAGSAIYPGNIEAAMAVYGEVGVRVVYARVFLDRMDGRIQGYVDALKARSPQVELCSIMEETAVAKDRITALSDQYHGTAGGRISVWPAPAITPAVTVEGMRWAQAFARDRAVMWTLHMAESDHDERLHWMSPAEYMECYGLLDERLQVAHCVYFDRKDVRLLHRHNVKVASQVVSNAYLGSGVAPVPEMVERGMAVGIGTDDGNCNDSVNMIGDMKFMAHIHRAVHRDADVLTPEKILEMATIDGARSLGMDHEIGSIETGKRADLILLDLRHPQTTPHHHLAATIVFQAYGNEVDTVLIDGNVVMENRRLSFLPPERELAFLEEAQSRATAILQRANMVANPAWRSL", "Degradation in % of 6-cyclopentyl-N4-(2,3,4,5,6-pentafluorophenyl)-1,3,5-triazine-2,4-diamine": 13, "Degradation in % of Melamine": 6}
{"molecule": "N70VD128SM155V: mutated TriA variant of SEQ ID NO: 2 (protein, Pseudomonas) MQTLSIQHGTLVTMDQYRRVLGDSWVHVQDGRIVALGVHAESVPPPADRVIDARGKVVLPGFINAHTHVVQILLRGGPSHGRQLYDWLFNVLYPGQKAMRPEDVAVAVRLYCAEAVRSGITTINDNASSAIYPGNIEAAMAVYGEVGVRVVYARVFFDRMDGRIQGYVDALKARSPQVELCSIMEETAVAKDRITALSDQYHGTAGGRISVWPAPAITPAVTVEGMRWAQAFARDRAVMWTLHMAESDHDERLHWMSPAEYMECYGLLDERLQVAHCVYFDRKDVRLLHRHNVKVASQVVSNAYLGSGVAPVPEMVERGMAVGIGTDDGNCNDSVNMIGDMKFMAHIHRAVHRDADVLTPEKILEMATIDGARSLGMDHEIGSIETGKRADLILLDLRHPQTTPHHHLAATIVFQAYGNEVDTVLIDGNVVMENRRLSFLPPERELAFLEEAQSRATAILQRANMVANPAWRSL", "Degradation in % of 6-cyclopentyl-N4-(2,3,4,5,6-pentafluorophenyl)-1,3,5-triazine-2,4-diamine": 0, "Degradation in % of Melamine": 0}
{"molecule": "Y85LL88AF89AL92AY93LQ96TD128GM155VF157L: mutated TriA variant of SEQ ID NO: 2 (protein, Pseudomonas) MQTLSIQHGTLVTMDQYRRVLGDSWVHVQDGRIVALGVHAESVPPPADRVIDARGKVVLPGFINAHTHVNQILLRGGPSHGRQLLDWAANVALPGTKAMRPEDVAVAVRLYCAEAVRSGITTINDNAGSAIYPGNIEAAMAVYGEVGVRVVYARVFLDRMDGRIQGYVDALKARSPQVELCSIMEETAVAKDRITALSDQYHGTAGGRISVWPAPAITPAVTVEGMRWAQAFARDRAVMWTLHMAESDHDERLHWMSPAEYMECYGLLDERLQVAHCVYFDRKDVRLLHRHNVKVASQVVSNAYLGSGVAPVPEMVERGMAVGIGTDDGNCNDSVNMIGDMKFMAHIHRAVHRDADVLTPEKILEMATIDGARSLGMDHEIGSIETGKRADLILLDLRHPQTTPHHHLAATIVFQAYGNEVDTVLIDGNVVMENRRLSFLPPERELAFLEEAQSRATAILQRANMVANPAWRSL", "Degradation in % of 6-cyclopentyl-N4-(2,3,4,5,6-pentafluorophenyl)-1,3,5-triazine-2,4-diamine": 13, "Degradation in % of Melamine": 1}
{"molecule": "N70VD128TM155V: mutated TriA variant of SEQ ID NO: 2 (protein, Pseudomonas) MQTLSIQHGTLVTMDQYRRVLGDSWVHVQDGRIVALGVHAESVPPPADRVIDARGKVVLPGFINAHTHVVQILLRGGPSHGRQLYDWLFNVLYPGQKAMRPEDVAVAVRLYCAEAVRSGITTINDNATSAIYPGNIEAAMAVYGEVGVRVVYARVFFDRMDGRIQGYVDALKARSPQVELCSIMEETAVAKDRITALSDQYHGTAGGRISVWPAPAITPAVTVEGMRWAQAFARDRAVMWTLHMAESDHDERLHWMSPAEYMECYGLLDERLQVAHCVYFDRKDVRLLHRHNVKVASQVVSNAYLGSGVAPVPEMVERGMAVGIGTDDGNCNDSVNMIGDMKFMAHIHRAVHRDADVLTPEKILEMATIDGARSLGMDHEIGSIETGKRADLILLDLRHPQTTPHHHLAATIVFQAYGNEVDTVLIDGNVVMENRRLSFLPPERELAFLEEAQSRATAILQRANMVANPAWRSL", "Degradation in % of 6-cyclopentyl-N4-(2,3,4,5,6-pentafluorophenyl)-1,3,5-triazine-2,4-diamine": 1, "Degradation in % of Melamine": 4}
{"molecule": "N70VM155V: mutated TriA variant of SEQ ID NO: 2 (protein, Pseudomonas) MQTLSIQHGTLVTMDQYRRVLGDSWVHVQDGRIVALGVHAESVPPPADRVIDARGKVVLPGFINAHTHVVQILLRGGPSHGRQLYDWLFNVLYPGQKAMRPEDVAVAVRLYCAEAVRSGITTINDNADSAIYPGNIEAAMAVYGEVGVRVVYARVFFDRMDGRIQGYVDALKARSPQVELCSIMEETAVAKDRITALSDQYHGTAGGRISVWPAPAITPAVTVEGMRWAQAFARDRAVMWTLHMAESDHDERLHWMSPAEYMECYGLLDERLQVAHCVYFDRKDVRLLHRHNVKVASQVVSNAYLGSGVAPVPEMVERGMAVGIGTDDGNCNDSVNMIGDMKFMAHIHRAVHRDADVLTPEKILEMATIDGARSLGMDHEIGSIETGKRADLILLDLRHPQTTPHHHLAATIVFQAYGNEVDTVLIDGNVVMENRRLSFLPPERELAFLEEAQSRATAILQRANMVANPAWRSL", "Degradation in % of 6-cyclopentyl-N4-(2,3,4,5,6-pentafluorophenyl)-1,3,5-triazine-2,4-diamine": 0, "Degradation in % of Melamine": 0}
{"molecule": "D128G: mutated TriA variant of SEQ ID NO: 2 (protein, Pseudomonas) MQTLSIQHGTLVTMDQYRRVLGDSWVHVQDGRIVALGVHAESVPPPADRVIDARGKVVLPGFINAHTHVNQILLRGGPSHGRQLYDWLFNVLYPGQKAMRPEDVAVAVRLYCAEAVRSGITTINDNAGSAIYPGNIEAAMAVYGEVGVRVVYARMFFDRMDGRIQGYVDALKARSPQVELCSIMEETAVAKDRITALSDQYHGTAGGRISVWPAPAITPAVTVEGMRWAQAFARDRAVMWTLHMAESDHDERLHWMSPAEYMECYGLLDERLQVAHCVYFDRKDVRLLHRHNVKVASQVVSNAYLGSGVAPVPEMVERGMAVGIGTDDGNCNDSVNMIGDMKFMAHIHRAVHRDADVLTPEKILEMATIDGARSLGMDHEIGSIETGKRADLILLDLRHPQTTPHHHLAATIVFQAYGNEVDTVLIDGNVVMENRRLSFLPPERELAFLEEAQSRATAILQRANMVANPAWRSL", "Degradation in % of 6-cyclopentyl-N4-(2,3,4,5,6-pentafluorophenyl)-1,3,5-triazine-2,4-diamine": 0, "Degradation in % of Melamine": 0}
{"molecule": "D128P: mutated TriA variant of SEQ ID NO: 2 (protein, Pseudomonas) MQTLSIQHGTLVTMDQYRRVLGDSWVHVQDGRIVALGVHAESVPPPADRVIDARGKVVLPGFINAHTHVNQILLRGGPSHGRQLYDWLFNVLYPGQKAMRPEDVAVAVRLYCAEAVRSGITTINDNAPSAIYPGNIEAAMAVYGEVGVRVVYARMFFDRMDGRIQGYVDALKARSPQVELCSIMEETAVAKDRITALSDQYHGTAGGRISVWPAPAITPAVTVEGMRWAQAFARDRAVMWTLHMAESDHDERLHWMSPAEYMECYGLLDERLQVAHCVYFDRKDVRLLHRHNVKVASQVVSNAYLGSGVAPVPEMVERGMAVGIGTDDGNCNDSVNMIGDMKFMAHIHRAVHRDADVLTPEKILEMATIDGARSLGMDHEIGSIETGKRADLILLDLRHPQTTPHHHLAATIVFQAYGNEVDTVLIDGNVVMENRRLSFLPPERELAFLEEAQSRATAILQRANMVANPAWRSL", "Degradation in % of 6-cyclopentyl-N4-(2,3,4,5,6-pentafluorophenyl)-1,3,5-triazine-2,4-diamine": 0, "Degradation in % of Melamine": 0}
{"molecule": "W87AL92AY93LF157L: mutated TriA variant of SEQ ID NO: 2 (protein, Pseudomonas) MQTLSIQHGTLVTMDQYRRVLGDSWVHVQDGRIVALGVHAESVPPPADRVIDARGKVVLPGFINAHTHVNQILLRGGPSHGRQLYDALFNVALPGQKAMRPEDVAVAVRLYCAEAVRSGITTINDNADSAIYPGNIEAAMAVYGEVGVRVVYARMFLDRMDGRIQGYVDALKARSPQVELCSIMEETAVAKDRITALSDQYHGTAGGRISVWPAPAITPAVTVEGMRWAQAFARDRAVMWTLHMAESDHDERLHWMSPAEYMECYGLLDERLQVAHCVYFDRKDVRLLHRHNVKVASQVVSNAYLGSGVAPVPEMVERGMAVGIGTDDGNCNDSVNMIGDMKFMAHIHRAVHRDADVLTPEKILEMATIDGARSLGMDHEIGSIETGKRADLILLDLRHPQTTPHHHLAATIVFQAYGNEVDTVLIDGNVVMENRRLSFLPPERELAFLEEAQSRATAILQRANMVANPAWRSL", "Degradation in % of 6-cyclopentyl-N4-(2,3,4,5,6-pentafluorophenyl)-1,3,5-triazine-2,4-diamine": 12, "Degradation in % of Melamine": 3}
